# According to patent US20240294646A1:
# Experiments:
# FcγRIIb [1] = target: FcγRIIb (UniProt P31994); assay: SPR (Protocol 2); ratio of the fold for FcγRIIb to the fold for FcγRIIaR
# FcγRIIb [2] = target: FcγRIIb (UniProt P31994); assay: SPR (Protocol 2), antibody captured on immobilised HER2, receptor as analyte
# FcγRIIaR = FcγRIIaR (UniProt P12318); assay: as above
# [3] = target: Soluble FcγRIIaR extracellular domain with C-terminal 10×His tag (UniProt P12318); assay: SPR (Biacore 4000), antibody captured on immobilised HER2, soluble receptor as analyte
# Soluble FcγRIIaR extracellular domain with C-terminal 10×His tag, sequence (P12318 other isoform, or with tags, fused parts or gaps): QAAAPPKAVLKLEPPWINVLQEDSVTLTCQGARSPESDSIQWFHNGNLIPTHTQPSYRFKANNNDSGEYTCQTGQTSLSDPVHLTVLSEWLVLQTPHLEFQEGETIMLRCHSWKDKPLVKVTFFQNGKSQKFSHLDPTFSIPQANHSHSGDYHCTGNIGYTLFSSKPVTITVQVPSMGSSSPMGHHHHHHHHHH
# [4] = target: Soluble FcγRIIb extracellular domain with C-terminal 10×His tag (UniProt P31994); assay: as above
# Soluble FcγRIIb extracellular domain with C-terminal 10×His tag, sequence (P31994 other isoform, or with tags, fused parts or gaps): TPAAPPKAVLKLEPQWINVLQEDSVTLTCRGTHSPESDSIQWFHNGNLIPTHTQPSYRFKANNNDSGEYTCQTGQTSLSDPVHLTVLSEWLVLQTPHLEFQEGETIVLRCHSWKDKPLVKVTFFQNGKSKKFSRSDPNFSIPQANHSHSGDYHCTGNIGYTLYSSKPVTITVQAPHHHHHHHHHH
# C1q (human) = C1q (human) (UniProt P02745); assay: ELISA; antibody coated, human C1q added, signal as % of WT
# C1q (human), sequence (P02745 23-245 limits assumed, chain 1 of 3): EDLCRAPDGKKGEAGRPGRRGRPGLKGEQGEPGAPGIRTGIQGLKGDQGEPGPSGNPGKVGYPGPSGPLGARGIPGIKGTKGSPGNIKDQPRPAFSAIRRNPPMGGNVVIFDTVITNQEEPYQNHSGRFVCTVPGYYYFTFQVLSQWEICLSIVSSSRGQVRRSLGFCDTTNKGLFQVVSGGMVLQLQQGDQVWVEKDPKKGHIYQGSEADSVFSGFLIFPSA
# C1q (human), sequence (P02746 28-253 limits assumed, chain 2 of 3, further chain): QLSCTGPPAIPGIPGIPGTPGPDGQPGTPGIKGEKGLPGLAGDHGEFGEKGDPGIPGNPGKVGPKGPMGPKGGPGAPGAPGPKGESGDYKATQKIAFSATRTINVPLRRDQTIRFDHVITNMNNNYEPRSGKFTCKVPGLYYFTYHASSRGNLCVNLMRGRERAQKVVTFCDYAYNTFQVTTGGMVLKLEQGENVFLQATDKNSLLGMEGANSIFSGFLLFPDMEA
# C1q (human), sequence (P02747 29-245 limits assumed, chain 3 of 3, further chain): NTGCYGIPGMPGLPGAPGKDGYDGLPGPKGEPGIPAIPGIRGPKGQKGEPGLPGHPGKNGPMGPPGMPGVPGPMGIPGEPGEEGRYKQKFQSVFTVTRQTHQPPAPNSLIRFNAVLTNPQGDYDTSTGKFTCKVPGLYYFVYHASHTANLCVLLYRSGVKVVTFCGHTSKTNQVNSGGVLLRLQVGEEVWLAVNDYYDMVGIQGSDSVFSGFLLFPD
# FcγRIIaR, sequence (P12318 34-217): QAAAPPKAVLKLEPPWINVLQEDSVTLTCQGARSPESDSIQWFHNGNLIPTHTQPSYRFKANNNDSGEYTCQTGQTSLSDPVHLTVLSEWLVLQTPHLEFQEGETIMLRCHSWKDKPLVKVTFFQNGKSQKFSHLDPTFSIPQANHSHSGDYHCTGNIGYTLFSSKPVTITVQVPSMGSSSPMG
# FcγRIIb, sequence (P31994 43-217): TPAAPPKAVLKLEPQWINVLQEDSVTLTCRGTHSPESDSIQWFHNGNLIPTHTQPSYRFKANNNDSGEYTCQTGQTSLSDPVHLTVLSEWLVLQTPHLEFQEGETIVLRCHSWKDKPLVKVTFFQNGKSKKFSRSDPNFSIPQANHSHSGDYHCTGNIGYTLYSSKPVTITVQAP
IIb/IIaR Selectivity (IIb-Fold/IIaR-Fold) (FcγRIIb [1]),IIb-Fold (fold change in affinity over wild-type) (fold over wild-type) (FcγRIIb [2]),IIaR-Fold (fold change in affinity over wild-type) (fold over wild-type) (FcγRIIaR),Kd [3] [nM],Kd [4] [nM],C1q Binding (% WT) (C1q (human)),Substance
1.2,31.1,25.6,,,,"Variant 19508 (chain A: none / chain B: S239D_H268D), one-armed trastuzumab antibody, Scaffold 2"
1.2,7.1,5.7,,,,"Variant 19511 (chain A: G236N_G237F / chain B: S239D_H268D), one-armed trastuzumab antibody, Scaffold 2"
2.5,7.9,3.2,,,,"Variant 19512 (chain A: none / chain B: G236N_S239D_H268D), one-armed trastuzumab antibody, Scaffold 2"
1.7,4.2,2.5,,,,"Variant 19514 (chain A: none / chain B: G236H_S239D_H268D), one-armed trastuzumab antibody, Scaffold 2"
0.3,10.3,30.9,,,,"Variant 19519 (chain A: G236E / chain B: S239D_H268D), one-armed trastuzumab antibody, Scaffold 2"
1.5,26.5,17.5,,,,"Variant 19520 (chain A: none / chain B: G236E_S239D_H268D), one-armed trastuzumab antibody, Scaffold 2"
6.8,37.6,5.5,,,,"Variant 19521 (chain A: G236N / chain B: G236D_S239D_H268D), one-armed trastuzumab antibody, Scaffold 2"
3.6,6.9,1.9,,,,"Variant 19523 (chain A: G236D / chain B: G236N_S239D_H268D), one-armed trastuzumab antibody, Scaffold 2"
3.7,7.7,2.1,,,,"Variant 19525 (chain A: G236D / chain B: G236Q_S239D_H268D), one-armed trastuzumab antibody, Scaffold 2"
3.5,1.4,0.4,,,,"Variant 19526 (chain A: G236D / chain B: G236K_S239D_H268D), one-armed trastuzumab antibody, Scaffold 2"
2.9,53.5,18.2,,,,"Variant 19694 (chain A: none / chain B: G236D_G237F_S239D_H268D), one-armed trastuzumab antibody, Scaffold 2"
,,,64,26,,"Variant 26702 (A_E269T_strat2), one-armed trastuzumab antibody"
,,,83,26,,"Variant 26705 (A_E269N_strat2), one-armed trastuzumab antibody"
,,,61,20,,"Variant 26706 (A_E269D_strat2), one-armed trastuzumab antibody"
,,,78,27,,"Variant 26710 (A_E269P_strat2), one-armed trastuzumab antibody"
,,,,,124,"Variant 32256 (trastuzumab FSA; chain A A237D_strat1, chain B G330*K_strat1) (antibody)"
,,,,,145,"Variant 32257 (trastuzumab FSA; chain A A237E_strat1, chain B G330*K_strat1) (antibody)"
,,,,,209,"Variant 32261 (trastuzumab FSA; chain A L234Q_strat1, chain B G330*K_strat1) (antibody)"
,,,,,170,"Variant 32263 (trastuzumab FSA; chain A L235A_strat1, chain B G330*K_strat1) (antibody)"
,,,,,210,"Variant 32268 (trastuzumab FSA; chain A S239T_strat1, chain B G330*K_strat1) (antibody)"
,,,,,2,"Variant 32273 (trastuzumab FSA; chain A L235R_strat2, chain B G237L_strat2) (antibody)"
,,,,,0,"Variant 32277 (trastuzumab FSA; chain A S239G_strat2, chain B G237L_strat2) (antibody)"

# More lines, now with the values behind:
Substance,IIb/IIaR Selectivity (IIb-Fold/IIaR-Fold) (FcγRIIb [1]),IIb-Fold (fold change in affinity over wild-type) (fold over wild-type) (FcγRIIb [2]),IIaR-Fold (fold change in affinity over wild-type) (fold over wild-type) (FcγRIIaR),Kd [3] [nM],Kd [4] [nM],C1q Binding (% WT) (C1q (human))
"Variant 19509 (chain A: G236N / chain B: S239D_H268D), one-armed trastuzumab antibody, Scaffold 2",3.3,31.8,9.7,,,
"Variant 19510 (chain A: G236N_G237A / chain B: S239D_H268D), one-armed trastuzumab antibody, Scaffold 2",3.1,5.5,1.8,,,
"Variant 19513 (chain A: G236H / chain B: S239D_H268D), one-armed trastuzumab antibody, Scaffold 2",0.6,8.2,13.4,,,
"Variant 19515 (chain A: G236Q / chain B: S239D_H268D), one-armed trastuzumab antibody, Scaffold 2",0.7,9.6,14.2,,,
"Variant 19517 (chain A: G236D / chain B: S239D_H268D), one-armed trastuzumab antibody, Scaffold 2",2.6,30.5,11.6,,,
"Variant 19518 (chain A: none / chain B: G236D_S239D_H268D), one-armed trastuzumab antibody, Scaffold 2",2.2,32.9,14.7,,,
"Variant 19524 (chain A: G236Q / chain B: G236D_S239D_H268D), one-armed trastuzumab antibody, Scaffold 2",1.2,10.3,8.9,,,
"Variant 19527 (chain A: G236N / chain B: G236K_S239D_H268D), one-armed trastuzumab antibody, Scaffold 2",6,1.2,0.2,,,
"Variant 19528 (chain A: G236N / chain B: G236S_S239D_H268D), one-armed trastuzumab antibody, Scaffold 2",2.8,18.6,6.7,,,
"Variant 19531 (chain A: G236D / chain B: G236H_S239D_H268D), one-armed trastuzumab antibody, Scaffold 2",2.3,3.7,1.6,,,
"Variant 19699 (chain A: G236D_G237F / chain B: G236D_G237F), one-armed trastuzumab antibody, Scaffold 2",7,2.1,0.3,,,
"Variant 26701 (A_E269Y_strat2), one-armed trastuzumab antibody",,,,67,21,
"Variant 26703 (A_E269S_strat2), one-armed trastuzumab antibody",,,,60,24,
"Variant 26704 (A_E269Q_strat2), one-armed trastuzumab antibody",,,,66,22,
"Variant 26707 (A_E269R_strat2), one-armed trastuzumab antibody",,,,77,23,
"Variant 26708 (A_E269K_strat2), one-armed trastuzumab antibody",,,,70,22,
"Variant 26709 (A_E269H_strat2), one-armed trastuzumab antibody",,,,69,22,
"Variant 26711 (A_D270G_strat2), one-armed trastuzumab antibody",,,,180,53,
"Variant 26712 (A_D270A_strat2), one-armed trastuzumab antibody",,,,80,29,
"Variant 32255 (trastuzumab FSA; chain A S239T_strat1, chain B D329*I_F328*Y_strat1) (antibody)",,,,,,194
"Variant 32260 (trastuzumab FSA; chain A L234D_strat1, chain B G330*K_strat1) (antibody)",,,,,,189
